The target of experiment [1] is H. sapiens nucleosome core particle (NCP) (human). As to the kind of experiment: native gel or EMSA. For orientation: A gel shift assay detects complexes by their altered migration in electrophoresis.
Experiment [2] addresses Kaposi's Sarcoma Herpesvirus Latency Associated Nuclear Antigen (LANA) peptide (Kaposi's Sarcoma Herpesvirus). As to the kind of experiment: fluorescence polarisation. (In general: In fluorescence polarisation assays a small probe gives low polarisation when free and higher when bound to something large.)

Kaposi's Sarcoma Herpesvirus Latency Associated Nuclear Antigen (LANA) peptide (Kaposi's Sarcoma Herpesvirus), sequence (Q9QR71 4-23): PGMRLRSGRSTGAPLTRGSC

As to “GST-His-TEV-tagged PFV GAG (from UniProt P14349 535-550) (peptide)”, the Kd in experiment [1] came to 3500 nM.

“H. sapiens nucleosome core particle (NCP) (complex)” registered a Kd in experiment [2] of 2380 nM.

In general, Kd refers to the free concentration of one partner at which half of the binding sites on the other are occupied at equilibrium, for simple one-to-one binding. A higher Kd goes with lower affinity.

These data come from paper doi:10.1101/2023.04.17.536592.
